PMC3407131, “Annexin A2 Is a Natural Extrahepatic Inhibitor of the PCSK9-Induced LDL Receptor Degradation” (PLoS ONE, 2012)

Target: T1, biotin-labeled human PCSK9 protein (residues 30–692) (human, UniProt Q8NBP7 30-692, biotin-labeled (site not stated))
T1 construct: PCSK9, human, residues 30–692; written as one chain; Held on streptavidin donor beads by the biotin; also called biotinylated PCSK9; full length PCSK9; source: baculovirus expression, purified recombinant
Test: AlphaScreen or HTRF; competition: biotin-PCSK9 (15 nM) and His-LDLR ectodomain (15 nM) mixed with increasing AnxA2 peptide, 60 min at 20°C in 25 mM Hepes pH 7.4, 100 mM NaCl, 0.5 mM CaCl2, 0.1% BSA; streptavidin donor and nickel chelate acceptor beads, overnight at 20°C
Details: both partners purified

T1 sequence (Q8NBP7 30-692): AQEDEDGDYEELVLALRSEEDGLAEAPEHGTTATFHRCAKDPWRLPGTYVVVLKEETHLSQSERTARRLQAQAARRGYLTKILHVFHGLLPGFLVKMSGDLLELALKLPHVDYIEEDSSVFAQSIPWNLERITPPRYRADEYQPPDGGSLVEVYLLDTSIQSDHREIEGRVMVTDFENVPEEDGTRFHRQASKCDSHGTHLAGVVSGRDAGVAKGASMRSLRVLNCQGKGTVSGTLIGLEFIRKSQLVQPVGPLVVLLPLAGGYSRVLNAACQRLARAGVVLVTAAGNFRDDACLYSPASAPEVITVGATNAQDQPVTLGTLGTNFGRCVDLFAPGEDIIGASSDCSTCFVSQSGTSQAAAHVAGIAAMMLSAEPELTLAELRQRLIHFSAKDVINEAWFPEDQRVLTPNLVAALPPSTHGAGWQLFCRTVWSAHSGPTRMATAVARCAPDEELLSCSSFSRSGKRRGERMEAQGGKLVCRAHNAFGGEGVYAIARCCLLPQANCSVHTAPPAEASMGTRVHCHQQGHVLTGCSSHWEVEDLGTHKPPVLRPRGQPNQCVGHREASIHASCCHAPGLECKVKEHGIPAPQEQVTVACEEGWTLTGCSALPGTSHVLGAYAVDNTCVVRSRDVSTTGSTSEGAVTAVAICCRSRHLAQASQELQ

fold lower apparent potency than the peptide 25–97	IC50	Binder
~20 fold		Ac-KGVDEVTIVNILTNRSNAQRQDIAFAYQRRTKKELASALKSALSGHLET-NH2 (peptide, UniProt P07355 49-97, looked up, annexin A2 (AnxA2), residues 49–97 of the R1 domain; also called intermediate length peptide (49–97); aa 49–97 peptide; source: synthetic peptide (solid phase synthesis, RP-HPLC purified)) [intermediate 49 aa AnxA2 peptide (residues 49–97)]
	~600 nM	73 aa peptide corresponding to the AnxA2 R1 domain (residues 25–97) (peptide, UniProt P07355 25-97, looked up, N-terminus acetylated; C-terminal amide, annexin A2 (AnxA2), residues 25–97 of the R1 domain; also called 73-mer AnxA2 peptide (aa 25–97); long peptide form; source: synthetic peptide (solid phase synthesis, RP-HPLC purified)) peptide: GSVKAYTNFDAERDALNIETAIKTKGVDEVTIVNILTNRSNAQRQDIAFAYQRRTKKELASALKSALSGHLET
